Reference: PMC8692065 (Cell Reports, 2021)

B1: mAb-56, displayed on nPnP hybridoma cells (single-ORF linker format) (antibody, V domains shown)
VH: EVQLVESGGGLIQPGGSMRLSCAASGFSVGTTYMSWVRQAPGKGLEWVSVVFKGHDTYYRKSVKGRFTISRDSSKNTLYLQMSDLRAEDSAVYFCTNMVLTYDSGWYWLDYWGQGIRVTVSS
VL: DIQMTQSPSPLSAFVGDMVTITCRASQSINNFLNWYQQKPGKAPRLLIYGASTLETGVPTRFSGSGSGTDFTFTISSLQPEDIATYYCQQYDNLPLTFGGGTKVEIK
B2: mAb-76, displayed on nPnP hybridoma cells (single-ORF linker format) (antibody, V domains shown)
VH: QVQLQQWGAGLLKPSETLSRTCGVYGGSFSGFYWSWIRQPPGKGLEWIGEINQSGTTSYNPSLMSRVTVSVDTSKNQFSLKLNSVTAADTAVYYCARRRSSWFEAGVHWYFDLWGRGTLVTVSS
VL: DIVMTQSPLSLAVTPGEPASISCRSSQSLLHSNGYNYLDWYLQKPGQSPQVLIYLGSNRASGVPDRFSGSGSGTDYTLKISRVEAEDAGVYYCMQALQTPTFGRGTKLEIK
B3: mAb-78, displayed on nPnP hybridoma cells (single-ORF linker format) (antibody, V domains shown)
VH: QVQLVESGGGVVQPGRSLTLSCAVSGFSFNNYGMHWVRQAPGKGLEWVSFISYEGSKRYYMDSLKGRFTISRDSSKNEVYLQMNRLTPEDTAVYYCAKSRAYFHFSAGRGVFDYWGRGALVTVSS
VL: DMQMTQSPSSLSASVGDRVTITCQASQDIGTYLNWYRHKPGEAPKLLIYHASNLETGVPSRFSGSGSGTDFSFTISSLQPEDIGTYYCQQYDDLPVFAFGPGTKVDLK
B4: mAb-80, displayed on nPnP hybridoma cells (single-ORF linker format) (antibody, V domains shown)
VH: EVQLVESGGGLVQPGGSLRLSCAASGFTFSSYWMHWVRQAPGKGLVWVSRINSDERNTRYADSVRGRFTISRDNAKNTLSLQMNSLRVDDTAVYYCARGGAAISYLYYYYGMDVWGQGTTVTVSS
VL: not shown
B5: mAb-111, displayed on nPnP hybridoma cells (single-ORF linker format) (antibody, V domains shown)
VH: DVQLLESGGGLVQPGGSRRLSCAASGFTFSNHAMSWVRQAPGKGLEWVSSISGSGGSTDYGDSVKGRFIVSRDNPRNTLYLDMNNLRTQDTAVYYCAKDRTFFTDSMLESWGEGTLVTVSS
VL: DIQMTQSPSSLSASVGDRVTITCRASQTISKSLNWYQQRPGKAPKLLIYAASNLQSGFPSRFSGSGSGTDFTLTISSVQPGDFATYYCQQTYSTPVTFGQGTTLEIK
B6: mAb-115, displayed on nPnP hybridoma cells (single-ORF linker format) (antibody, V domains shown)
VH: EVQVVESGGGLVKPGGSLRLSCSVSGTTLADAWLNWVRQAPGKGLEWVGRIKSKPDVGTTEYAAPVKGRFIISRDDSGNSFFLQMTDLKPEDTAVYYCAARWEMQLWLRLFDFWGPGALVTVSS
VL: EIVVTQSPATLSVSAGERANLSCRTSQSISRDLAWYQQKPGQAPRLLIYGVFSRATGIPARFSGSGSGTEFTLTISSLQSEDFAVYYCQQYNKWWTFGQGTKVEIK
B7: CR3022, secreted by nPnP hybridoma cells (single-ORF linker format), supernatant (antibody, V domains shown)
VH: QMQLVQSGTEVKKPGESLKISCKGSGYGFITYWIGWVRQMPGKGLEWMGIIYPGDSETRYSPSFQGQVTISADKSINTAYLQWSSLKASDTAIYYCAGGSGISTPMDVWGQGTTVTVSS
VL: not shown

Key:
SARS-CoV-2 RBD-mFc = SARS-CoV-2 RBD-mFc (SARS-CoV-2, original strain, UniProt P0DTC2); assay: flow cytometry on cells
SARS-CoV-2 S2-mFc = SARS-CoV-2 S2-mFc (SARS-CoV-2, original strain, UniProt P0DTC2); assay: flow cytometry on cells
SARS-CoV-2 Nucleocapsid = SARS-CoV-2 Nucleocapsid (SARS-CoV-2, UniProt P0DTC9); assay: ELISA

Row | Binder | binding result (SARS-CoV-2 S2-mFc) | other results
1 | B1 |  | binding result (SARS-CoV-2 RBD-mFc): binds
2 | B2 |  | binding result (SARS-CoV-2 RBD-mFc): binds
3 | B3 | binds | 
4 | B4 | binds | 
5 | B5 | binds | 
6 | B6 | binds | 
7 | B7 |  | binding result (SARS-CoV-2 Nucleocapsid): no binding
